Target: the molecule itself
Test: gel filtration (Superose 200); dynamic light scattering with MgCl2 also gave a monodisperse, dimeric sample; homodimer self-association

B1: recombinant S. aureus thymidylate kinase (with polyhistidine [his6] sequence tag) (enzyme)
chain: MGSAFITFEGPEGSGKTTVINEVYHRLVKDYDVIMTREPGGVPTGEEIRKIVLEGNDMDIRTEAMLFAASRREHLVLKVIPALKEGKVVLCDRYIDSSLAYQGYARGIGVEEVRALNEFAINGLYPDLTIYLNVSAEVGRERIIKNSRDQNRLDQEDLKFHEKVIEGYQEIIHNESQRFKSVNADQPLENVVEDTYQTIIKYLEKIRSHHHHHH
notes: Expressed in E. coli with a His6 tag; The crystals used for the structure were of the selenomethionine analogue (methionines replaced by selenomethionine); Gel filtration and light scattering appear to have used the native protein; also called S. aureus TMK; T. kinase
binding result: binds
